B3: Ac-QQKPKPKPKQQ-Am [mCATCH(+)] (peptide)
peptide: Ac-QQKPKPKPKQQ-NH2
notes: Mutant of CATCH(+) with proline in place of the phenylalanine residues

Assays:
[1] = Protein incorporation and retention in macroscopic hydrogels under excess PBS; format: physicochemical
Description: Macroscopic Hydrogel Formation. A 12 mM stock solution of CATCH(−) was prepared by dissolving dry peptide in 1x PBS and adjusting the pH to ˜7.6 with ammonium bicarbonate (Fisher). A 12 mM stock solution of CATCH(+) was prepared by dissolving dry peptide in 1X PBS and adjusting the pH to ˜7.2 with hydrochloric acid (0.5 N Fisher). CATCH peptide stock solutions were combined at a 1:1 (v/v) ratio in a 0.2 mL glass vial (Thermo), and the vial was gently swirled for 2 min until the hydrogel formed. The hydrogel was stained with red food coloring to aid visualization. Hydrogel images were recorded using a digital still camera.
Protein Incorporation into Macroscopic Hydrogels. […] Immediately after hydrogel formation, fluorescence was visualized by placing the glass vials on a SafeImager 2.0 transilluminator (Invitrogen) and recording images with a digital still camera. […] At various time points, fluorescence in the buffer supernatant was visualized by placing the glass vials on a SafeImager 2.0 transilluminator (Invitrogen) and recording images with a digital still camera. At the end-point, buffer supernatant was carefully removed by decanting and fluorescence was visualized by placing the glass vials on a SafeImager 2.0 transilluminator (Invitrogen) and recording images with a digital still camera.

[2] = Circular dichroism: concentration-dependent transition from random coil to β-sheet; format: physicochemical; settings: equimolar mixture of CATCH peptides in 1x PBS, ellipticity at 212 nm
Description: Circular Dichroism. Circular Dichroism was performed on an AVIV 202 spectrometer. Peptides were prepared in 1x PBS at 500 μM, unless stated otherwise. Samples were run 3 times, averaged, and converted to mean residue ellipticity. All data reported was for dynode values <500 V.
(§1) Nanofiber preparation. Stock solutions of CATCH(−) and CATCH(+) were prepared by dissolving lyophilized peptides in 1x PBS to a final concentration of 500 μM. Peptide concentration was confirmed using Phe absorbance (λ=260 nm). CATCH peptides were then mixed at a 1:1 (v/v) ratio and incubated overnight for formation of nanofibers, unless stated otherwise.

[3] = literature value (ref. 7); cited from earlier work
[4] = biological target: T1, Ac-EQEPEPEPEQE-Am [mCATCH(-)]; assay: ThT fluorimetry, equimolar mixture
T1 construct: Mutant of CATCH(-) with proline in place of the phenylalanine residues
T1 peptide: Ac-EQEPEPEPEQE-NH2
Description: (§2) Thioflavin T (ThT) Assay. A ThT stock solution containing 0.8 mg/mL of thioflavin T (Acros) in 1x phosphate-buffered saline (PBS) (137 mM NaCl, 2.7 mM KCl, 10 mM Na₂HPO₄ and 1.8 mM KH₂PO₄, pH 7.4) was filtered through a 0.22 μm syringe filter (Millex), and further diluted 1:10 with 1x PBS to create a working solution. Peptide samples were mixed with the ThT working solution at a 1:10 (v/v) ratio, added to a black 96-well plate (Corning), and analyzed with a Molecular Devices SpectraMax M3 spectrophotometer (excitation 450, emission 482 nm). All samples were run in triplicate, with the mean and standard deviation of these samples reported.
as §1

[5] = biological target: the molecule itself; assay: ThT fluorimetry, TEM, CD and fluorescence microscopy of the peptide alone
[6] = biological target: B3; assay: ThT fluorimetry, equimolar mixture
Description: as §2, §1

[7] = biological target: T1, Ac-EQEPEPEPEQE-Am [mCATCH(-)]; assay: ThT fluorimetry, kinetic, equimolar mixture
[8] = Dissolution of monosodium urate (MSU) crystals in vitro; format: biochemical; settings: 12.6 ug soluble CATCH-U, 0.5 mg MSU crystals, 2250 U/mL catalase, 96 hours, density at 293 nm
Description: The enzymatic activity of CATCH-U in soluble and gel form was evaluated by measuring uric acid depletion over time via absorbance at 293 nm and 37° C. for varying concentrations of uric acid substrate. Hydrogels were left to incubate at 37° C. for 4 days with substrate removed and replenished daily to determine if the gels remain active over this timeframe. Gels were also incubated with monosodium urate (MSU) crystals.
Soluble CATCH-U activity in dissolving MSU crystals was assessed by incubating 12.6 ug soluble CATCH-U with 0.5 mg MSU crystals and 2250 U/mL catalase for 96 hours (FIG. 60). MSU crystal density was determined at 293 nm compared to a standard curve of crystals. […] Brightfield images, scale bar=[…].
The hydrogel creates a concentration gradient sufficient to dissolve crystallized uric acid in the form of monosodium urate (MSU) crystals (FIGS. 58 and 61). […] MSU crystals appear as white flakes while the background is black. The gel is the white mass on the right. […] A similar experiment was performed with lOuL hydrogels comprising 3.17 ug CATCH-U and incubated with 1 g/L MSU crystals for 24 hours (FIG. 61). […] Polarized, phase contrast images, scale bar=500 μm.

In the case of “CATCH(−)GFP: recombinant fusion of CATCH(−) and superfolder green fluorescent protein (GFP)”, the “Fluorescence of hydrogel after incubation under excess 1x PBS” value ([1]; CATCH hydrogels formed in presence of the fusion protein, 48 h) is reported as “retained their fluorescence” and the “GFP in the buffer layer over the hydrogels” value ([1]; excess 1x PBS, up to 48 h) is reported as “no GFP was detected”.

In the case of “CATCH peptides: equimolar mixture of CATCH(+) and CATCH(−) peptides that co-assemble into β-sheet nanofibers (Ac-QQKFKFKFKQQ-NH2; not fully specified)”, the β-sheet fibrillization concentration [2] is reported as “about 300 μM”.

For “Ac-QQKFQFQFEQQ-Am (Ac-QQKFQFQFEQQ-NH2) [Q11]”, the “Concentration at which the peptide self-assembles into β-sheet nanofibers” value [3] is given as ~10 µM.

B1: Ac-QQKFKFKFKQQ-Am [CATCH(+)] (peptide)
peptide: Ac-QQKFKFKFKQQ-NH2
notes: Synthetic designed cationic variant of Q11, made by Fmoc solid-phase synthesis; also called CATCH (4+); positive peptide
B1: no binding [4]; no binding [5].

B2: Ac-EQEFEFEFEQE-Am [CATCH(-)] (peptide)
peptide: Ac-EQEFEFEFEQE-NH2
notes: Synthetic designed anionic variant of Q11, made by Fmoc solid-phase synthesis; also called CATCH (6-); negative peptide
B2: no binding [6]; no binding [5].

B3: no binding [7].

B4: CATCH-U: uricase fused to a CATCH peptide, expressed in E. coli, purified via nickel affinity chromatography; probably SEQ ID NO: 9 (FIG. 59) (protein)
chain: MAEQEFEFEFEQEGSGGGSGGSGGGGSGGSGEFMSAVKAARYGKDNVRVYKVHKDEKTGVQTVYEMTVCVLLEGEIETSYTKADNSVIVATDSIKNTIYITAKQNPVTPPELFGSILGTHFIEKYNHIHAAHVNIVCHRWTRMDIDGKPHPHSFIRDSEEKRNVQVDVVEGKGIDIKSSLSGLTVLKSTNSQFWGFLRDEYTTLKETWDRILSTDVDATWQWKNFSGLQEVRSHVPKFDATWATAREVTLKTFAEDNSASVQATMYKMAEQILARQQLIETVEYSLPNKHYFEIDLSWHKGLQNTGKNAEVFAPQSDPNGLIKCTVGRSSLKSKLLEHHHHHH
In the case of B4, the “MSU crystal amount over time” value [8] is reported as “steady and significant decrease”.

From US20230374471A1, “SELF-ASSEMBLING URICASE FUSION PEPTIDES” (University of Florida Research Foundation, Incorporated, priority 2020, published 2023)
